Some results are limits rather than exact numbers.

Experiment [1] concerns the target T1, human EpCAM on cells (CHO-K1 cells transfected with human EpCAM; EpCAM+ tumour cell lines) (human, UniProt P16422 24-314).
T1 construct: whole, on cells; also called CHO-K1-huEpCAM cells; cell-surface EpCAM
T1 sequence (looked up): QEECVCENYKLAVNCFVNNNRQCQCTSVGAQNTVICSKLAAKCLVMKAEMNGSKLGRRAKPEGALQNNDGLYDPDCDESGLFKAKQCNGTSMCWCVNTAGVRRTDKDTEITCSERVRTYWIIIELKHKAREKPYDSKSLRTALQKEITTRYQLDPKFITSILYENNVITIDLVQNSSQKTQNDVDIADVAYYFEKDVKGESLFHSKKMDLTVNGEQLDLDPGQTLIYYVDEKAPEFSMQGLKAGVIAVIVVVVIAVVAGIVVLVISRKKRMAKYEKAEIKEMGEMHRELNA
The experiment can be described thus: flow cytometry on CHO-K1 cells transfected with human EpCAM.

Experiment [2] addresses T2, human EpCAM extracellular domain with C-terminal His tag (Novoprotein #C339) (human, UniProt P16422 24-265).
T2 construct: extracellular domain; Bought protein
T2 sequence (looked up): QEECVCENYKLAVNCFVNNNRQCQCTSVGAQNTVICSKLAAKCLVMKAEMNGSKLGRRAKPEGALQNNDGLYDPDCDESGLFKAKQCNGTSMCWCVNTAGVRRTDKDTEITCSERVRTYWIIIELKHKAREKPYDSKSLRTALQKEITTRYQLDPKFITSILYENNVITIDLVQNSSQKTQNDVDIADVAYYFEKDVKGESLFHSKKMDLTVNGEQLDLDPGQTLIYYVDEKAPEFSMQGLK
The experiment can be described thus: ELISA on human EpCAM.

For experiment [3], the target named is T1, human EpCAM on cells (CHO-K1 cells …). The experiment can be described thus: flow cytometry on MCF-7, Caco-2 and A431 cells. Background: A flow cytometer gives signals particle by particle.
The target of experiment [4] is T3, human CD47 extracellular domain with C-terminal 6×His tag (human, UniProt Q08722 19-139, limits assumed).
T3 construct: extracellular domain; Made in Expi293F cells (section 5.4.1); also called recombinant CD47; huCD47
The experiment is described as follows: ELISA on human CD47; EC50 given as a bin, limits from the table's legend; lower limit of bin B. Background: In an ELISA, binding on a coated surface is turned into a signal by an enzyme label.

The target in experiment [5] is T3, human CD47 extracellular domain with …. The experiment can be described thus: ELISA on human CD47; EC50 given as a bin, limits from the table's legend; upper limit of bin B.
Experiment [6] has as its target T4, CD47 expressed on human red blood cells (human, UniProt Q08722 19-323).
T4 construct: whole, on cells; also called RBCs; RBC
The experiment can be described thus: flow cytometry on human red blood cells.

In experiment [7] the target is T3, human CD47 extracellular domain with …. The experiment can be described thus: ELISA, plate coated with recombinant huCD47.
The target in experiment [8] is T2, human EpCAM extracellular domain with …. The experiment can be described thus: ELISA, plate coated with human EpCAM.

B1: mAb-39 (chimeric anti-EpCAM antibody) (antibody, V domains shown)
VH: QIQLVQSGPELKKPGETVKISCKASGYTFTSYGVTWVKQAPGKGLKWMGWINTYSGVPTYADDFKGRFAFSLETSASTAYLQINNLKNEDTATYFCARSHSNYDFWGQGTTLTVSS
VL: DIVMTQSQKFMSTTVGDRVSITCQASQNVGTDVGWYQQKPGQSPKLLIYSASNRYTGVPDRFTGSGSGTDFTLTISNMQSEDLADYFCQQYSSYPRTFGGGTKLEIK
On to B1, for which the binding result in experiment [1] and in experiment [2] was “binds” each time.

B2: mAb-33 (chimeric anti-EpCAM antibody) (antibody, V domains shown)
VH: EVLLQQSVADLVRPGASVKLSCTASGLNIKNTYIHWVKQMPEQGLEWIGRIGPANGNTKYAPKFQGKATITADTSSDTAYLQLSSLTSEDTAIYYCALAYYRIYWGQGTTLTVSS
VL: DIVLTQSPASLAVSLGQRATISCRASESVDNSGISFMHWYQQKPGQSPKLLIYRASNLESGIPARFSGSGSRTDFTLTINPVETDDVATYYCQQSYENPWTFGGGTKLEIK
On to B2, for which the binding result in experiment [1] and in experiment [2] was “binds” each time.

B3: mAb-35 (chimeric anti-EpCAM antibody) (antibody, V domains shown)
VH: EVQLQQSVAELVRPGASVKLSCTASGFNIKNTYMHWVKQRPEQGLEWIGRIAPANGNTKYAPKFQDKATITANTSSNTAYLQLGSLTSEDTAIYYCAFIYQLPYWGQGTTLTVSS
VL: DIVLTQSPASLAVSLGQRATISCRASESVDNYGISFMHWFQQKPGQPPKLLIFRASSLESGIPARFSGSGSRTDFTLTINPVETDDVATYYCQQSYKDPWTFGGATKLEIK
Take B3: the binding result in experiment [1] and in experiment [2] was “binds” each time.

B4: mAb-37 (chimeric anti-EpCAM antibody) (antibody, V domains shown)
VH: EVQLQQSVAELVRPGASVKLSCTASGFNIKNTYMHWVKQRPEQGLEWIGRIAPANGNTKYDPKFQDKATITADSSSNTAYLHLSSLTSEDTAIYYCAFIYQLPYWGQGSTLTVSS
VL: DIVLTQSPTSLAVSLGQRATISCRASESVDNYGISFMHWYQQKPGQPPKLLIYRASSLESGIPARFSGSGSRTDFTLTINPVESDDVATYYCQQSYKDPWTFGGATKLEIK
Take B4: the binding result in experiment [2] is “binds”.

B5: mAb-28 (chimeric anti-EpCAM antibody) (antibody, V domains shown)
VH: QVQLQQSGAELARPGASVKVSCKASGYTFTSYGISWVKQRTGQGLEWIGEIYPTRDYTYYNENFKGKATLTADKSSTTAYMELRSLTSEDSAVYFCARDGPPFAYWGQGTLVTVSA
VL: DIVMTQAAFSNPVTLGTSASISCRSSKSLLHSNGFTYLHWYLQKPGQSPQLLIYQMSSLASGVPDRFSSSGSGTDFTLRISRVEAEDVGVYYCAQNLELPRTFGGGTKLEIK
Take B5: the binding result in experiment [1] and in experiment [2] was “binds” throughout.

B6: mAb-21 (chimeric anti-EpCAM antibody) (antibody, V domains shown)
VH: DVQLQESGPGLVKPSQSLSLTCTVTGYSITSDFAWNWIRQFPGNKLEWVGYITYSGTTSYNPSLKSRISITRDTSKNQFFLQLSSVTTEDTATYYCARSFHFFAYGFAYWGQGTLVTVSA
VL: not shown
For the molecule B6, the EC50 in experiment [3] is below 20 nM.

B7: VIR47 IgG1 HC G99A (antibody, V domains shown)
VH: EVQLLESGGGLVQPGGSLRLSCAASGFTFSNFAMSWVRQAPGKGLEWVSTISASGGRTFYADSVKGRITISRDNSKNTLFLQMNGLRAEDTAVYYCAKEGSFAEGVDPWGQGTLVTVSS
VL: SYEMTQPPSVSVSPGQTARITCSGDALPKKYAYWYQQKSGQAPVLVIYEDNKRPSGIPERFSGSSSGTMATLTISGAQVEDEADYYCYSTDISGNHWVFGGGTELTVLG
notes: Alanine-scan variant of the IgG1 form of VIR47; position in Kabat-style numbering, not the linear count on the entry
Take B7: the results for the EC50 in experiment [4] and in experiment [5] were at least 0.15 nM and at most 0.4 nM, respectively.

B8: VIR47.V7 hIgG1 (antibody, V domains shown)
VH: EVQLLESGGGLVQPGGSLRLSCAASGFTFSNFAMSWVRQAPGKGLEWVSTISASGGRTFYADSVKGRITISRDNSKNTLYLQMNSLRAEDTAVYYCAKEGSFGEGVDPWGQGTLVTVSS
VL: SYEMTQPPSVSVSPGQTARITCSGDALPKKYAYWYQQKSGQAPVLVIYEDNKRPSGIPERFSGSSSGTMATLTISGAQVEDEADYYCYSTDISGNHWVFGGGTKLTVLG
notes: HC: F79Y, G82bS; LC: E103K (Kabat) against VIR47; already contained in the entries
As for B8, in experiment [6], the “fold higher concentration required for RBC binding, against CD47 BMK-1” value is above 20 fold.

B9: mAb-30 (chimeric anti-EpCAM antibody) (antibody, V domains shown)
VH: EVQLQQSGPELVKPGASVKISCKASGYTFTDYYMSWVKQSHGRSLEWIGEINPDNGDTSHNQKFKGKATMTVDKSSGTGNMEIRSLTSEDAGIYYCTSYFSYWGQGTLVTVSA
VL: DVLMTQSPLSLPVSLGDQASISCRSSQSIVDSDGSTYLEWYLQKPGQSPKLLIYKVSNRFSGVPDRFSGSGSGTDFTLKISGVEAEDLGVYYCFQGSHVPYTFGGGTKLEIK
Regarding B9, the binding result in experiment [1] and in experiment [2] was “binds” in each case.

B10: mAb-4 (chimeric anti-EpCAM antibody) (antibody, V domains shown)
VH: QVQLQQPGAELVRPGTSVKLSCKASGYTFTSYWMHWIKQRPGQGLEWIGVIDPSNSYSNYNQKFKGRATLTVDTYSSTAYMQLSSLTSEDSAVYYCARPYNHGRDAMDYWGQGTSVTVSS
VL: DVLLTQTPLSLSVSLGDQASISCRSSQSFVHINGNTYLEWFLQKPGLSPKLLIYKVSNRFSGVPDRFSGSGSGTDFTLKISRVEAEDLGIYYCFQGSHVPLTFGAGTKLELK
Take B10: the binding result in experiment [2] was “binds”.

B11: Bi-1 (3C-KIH EpCAM × CD47 scFv bispecific antibody) (bispecific antibody, human IgG1)
chain: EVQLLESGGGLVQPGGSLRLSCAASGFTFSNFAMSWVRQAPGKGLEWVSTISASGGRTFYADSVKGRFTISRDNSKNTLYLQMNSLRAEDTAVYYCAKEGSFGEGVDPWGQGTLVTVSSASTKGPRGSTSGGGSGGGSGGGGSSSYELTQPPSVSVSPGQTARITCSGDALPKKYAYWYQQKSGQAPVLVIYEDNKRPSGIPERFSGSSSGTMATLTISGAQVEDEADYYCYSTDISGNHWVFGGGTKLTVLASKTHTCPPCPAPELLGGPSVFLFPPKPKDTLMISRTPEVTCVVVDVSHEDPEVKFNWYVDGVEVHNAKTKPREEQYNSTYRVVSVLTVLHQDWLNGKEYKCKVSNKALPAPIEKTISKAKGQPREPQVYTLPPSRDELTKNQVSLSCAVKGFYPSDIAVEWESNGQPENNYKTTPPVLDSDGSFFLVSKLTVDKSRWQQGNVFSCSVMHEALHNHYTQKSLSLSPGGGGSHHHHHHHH
heavy: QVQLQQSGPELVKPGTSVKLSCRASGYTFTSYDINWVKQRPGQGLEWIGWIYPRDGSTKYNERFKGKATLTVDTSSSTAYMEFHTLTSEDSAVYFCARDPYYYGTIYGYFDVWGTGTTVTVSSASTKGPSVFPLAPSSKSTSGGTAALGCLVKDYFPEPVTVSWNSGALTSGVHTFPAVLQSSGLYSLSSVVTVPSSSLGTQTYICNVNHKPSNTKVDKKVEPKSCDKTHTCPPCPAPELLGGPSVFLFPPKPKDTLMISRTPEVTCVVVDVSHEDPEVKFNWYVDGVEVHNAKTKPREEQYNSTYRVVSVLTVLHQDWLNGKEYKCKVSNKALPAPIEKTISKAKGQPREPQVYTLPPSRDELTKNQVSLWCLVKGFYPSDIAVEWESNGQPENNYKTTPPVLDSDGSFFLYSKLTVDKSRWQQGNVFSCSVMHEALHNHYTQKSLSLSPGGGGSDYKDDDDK
VL: DIQMTQSPSSLSASLGERVSLTCRASQDIGNSLNWLQQKPDGTIKRLIYVTSRLDSGVPKRFSGSRSGSDYFFTISSLESEDFADYYCLQYASSPFTFGSGTKLEIK
notes: Three-chain knob-into-hole format
Regarding B11, the binding result in experiment [7] and in experiment [8] was “binds” in each case.

B12: mAb-1 (chimeric anti-EpCAM antibody) (antibody, V domains shown)
VH: QVQLQQSGPELVKPGTSVKLSCRASGYTFTSYDINWVKQRPGQGLEWIGWIYPRDGSTKYNERFKGKATLTVDTSSSTAYMEFHTLTSEDSAVYFCARDPYYYGTIYGYFDVWGTGTTVTVSS
VL: DIQMTQSPSSLSASLGERVSLTCRASQDIGNSLNWLQQKPDGTIKRLIYVTSRLDSGVPKRFSGSRSGSDYFFTISSLESEDFADYYCLQYASSPFTFGSGTKLEIK
notes: also called EpCAM Mab1
For the molecule B12, the binding result in experiment [7] is on record as “no binding (tested: 100 nM)”. This molecule had an EC50 in experiment [3] below 20 nM. In addition, in experiment [8], the half-maximal effective concentration (EC50 (read off the curve)) was around 0.1 nM.

B13: VIR47 hIgG4-SPL (antibody)
heavy: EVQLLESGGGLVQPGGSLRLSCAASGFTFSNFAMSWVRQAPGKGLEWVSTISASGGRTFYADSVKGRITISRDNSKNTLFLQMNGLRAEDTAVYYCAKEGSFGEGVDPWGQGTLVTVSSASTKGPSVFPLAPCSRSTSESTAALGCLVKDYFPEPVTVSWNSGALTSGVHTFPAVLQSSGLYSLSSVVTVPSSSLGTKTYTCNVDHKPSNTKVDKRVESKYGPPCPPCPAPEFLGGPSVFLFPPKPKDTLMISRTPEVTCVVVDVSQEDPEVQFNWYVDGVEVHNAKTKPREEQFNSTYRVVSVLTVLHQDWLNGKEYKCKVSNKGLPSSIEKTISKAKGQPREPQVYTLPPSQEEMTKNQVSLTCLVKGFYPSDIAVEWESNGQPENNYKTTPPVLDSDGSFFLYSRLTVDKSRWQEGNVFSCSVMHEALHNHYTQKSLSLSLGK
light: SYEMTQPPSVSVSPGQTARITCSGDALPKKYAYWYQQKSGQAPVLVIYEDNKRPSGIPERFSGSSSGTMATLTISGAQVEDEADYYCYSTDISGNHWVFGGGTELTVLGQPKAAPSVTLFPPSSEELQANKATLVCLISDFYPGAVTVAWKADSSPVKAGVETTTPSKQSNNKYAASSYLSLTPEQWKSHRSYSCQVTHEGSTVEKTVAPTECS
notes: Anti-CD47 from OmniRat rats on a human IgG4 framework with S228P; also called VIR47 mAb; IgG4 form
For the molecule B13, the “fold higher concentration required for RBC binding, against CD47 BMK-1” value in experiment [6] was above 20 fold.

B14: mAb-2 (chimeric anti-EpCAM antibody) (antibody, V domains shown)
VH: EVQLVESGGGLVQPKGSLKLSCAASGFTFNTYAMHWVRQAPGKGLEWVARIRSKTYNYATFYADSVKDRFTISRDDSQSMLYLQMNNLKTEDTAMFYCVTGSSYAMDYWGQGTSVTVSS
VL: DILLTQSPAILSVSPGERVSFSCRASQSIGTSLHWYQQRTNGSPRLLIKYASESISGIPSRFSGSGSGTDFTLSINSVESEDIADYYCQQSNSWPYTFGGGTKLEIK
notes: also called EpCAM Mab2
On to B14, for which the 50% effective concentration (EC50) in experiment [3] is below 20 nM.

B15: mAb-36 (chimeric anti-EpCAM antibody) (antibody, V domains shown)
VH: QVQVQQSGPELVKPGTSVKISCKTSGYTFTDYYITWVKQRPGQGLEWIGWIFPGRGISFYNENFKDKATLTVDKSSNTAFMLLSSLTSEDSAVYFCARWGGTWFAYWGQGTLITVSA
VL: EIVLTQSPAITAAFLGQKVTITCSASSSVSYIHWYQQKSDTSPKPWIYEISKLASGVPARFSGSGSGTSYSLTISSMEAEDAAIYYCQQWNYPLITFGGGTKLEIK
In the case of B15, the binding result in experiment [1] and in experiment [2] was “binds” each time.

B16: mAb-8 (chimeric anti-EpCAM antibody) (antibody, V domains shown)
VH: QVQLQQSGAELARPGASVQLSCKASGYTFTSYGISWLKQRAGQGLEWIGEIYPRSDNTYYNEKFKGKATLTADKSSSTAYMELRSLTSEDSAVYFCARRAGMWFAYWGQGTLVTVSA
VL: EIVLTQSPAITAASLGQKVTITCSASSSVSDMHWYQQKSGTSPKPWIYEISKLASGVPTRFSGSGSGTSYSLTISSMEAEDAAIYYCQHWSYPLMTFGGGTKLEIK
notes: also called EpCAM Mab8
The molecule B16 displayed an EC50 in experiment [3] below 20 nM.

Broadly, the EC50 is the concentration at which the effect is half-maximal. High values mean a less potent agent, low ones a more potent agent. The EC50 (read off the curve) is the midpoint of the concentration-response curve. A lower EC50 (read off the curve) goes with higher potency in that assay.

For the origin of these results see patent publication US20230159663A1 (VIRTUOSO BINCO, published 2023).
